Data published in article PMC4894967.

Molecular target: ATM/Tel1 kinase from Schizosaccharomyces pombe (S. pombe) (UniProt O74630)
Test: cryo-EM structure; single-particle cryo-EM of purified ATM/Tel1, 20-50 ug/ml in 20 mM HEPES pH 8.0, 40 mM KOAc, 5 mM MgCl2, 0.1% trehalose, 2 mM DTT, 0.01% NP-40; 8.7 Å; initial model from negative-stain RCT

How did the stoichiometry N turn out when “ATM/Tel1 kinase from Schizosaccharomyces pombe, O74630 1-2812” was run?
The stoichiometry N was 2.
